The data set addresses T1, Recombinant Human FGF23 (Fibroblast Growth Factor 23) (UniProt Q9GZV9).
T1 sequence: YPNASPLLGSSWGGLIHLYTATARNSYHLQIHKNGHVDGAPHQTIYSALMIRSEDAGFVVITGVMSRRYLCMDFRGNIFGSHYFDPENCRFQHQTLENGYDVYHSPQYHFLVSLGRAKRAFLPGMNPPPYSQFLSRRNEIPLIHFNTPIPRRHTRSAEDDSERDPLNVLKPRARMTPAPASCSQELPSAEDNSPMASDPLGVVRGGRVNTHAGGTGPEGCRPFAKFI

Results on one substance are retold here after patent publication US20200046811.

Consider “Recombinant human uPA (urokinase plasminogen activator)”, for which the “in vitro proteolysis of FGF23, silver stained SDS-PAGE gel” value is “smaller fragments are generated on a silver stained SDS-PAGE gel indicating proteolytic cleavage”.
